Assay results: article PMC5863373

Columns and labels:
[1] = target: human mitochondrial lysyl-tRNA synthetase with a C-terminal HA-tag (human) (UniProt Q15046); experiment: AlphaScreen or HTRF; HTRF; 1.5 nM mLysRS-HA or mLysRS∆C-HA (dimer) with rising His-tagged Pol (0.02 to 10 nM dimer), IN (0.5 to 125 nM dimer) or TF (1 to 1000 nM monomer); 10 mM Tris-HCl pH 7.5, 50 mM NaCl, 10 mM 2-mercaptoethanol, BSA 1 mg/ml, 1 h on ice; anti-H6-Eu3+ cryptate and anti-HA-XL665; apparent Kd
[2] = target: human mitochondrial lysyl-tRNA synthetase with a C-terminal HA-tag (human) (UniProt Q15046); experiment: AlphaScreen or HTRF; HTRF as in a1, Pol on mLysRS in the presence of 1 μM tRNA3^Lys
[3] = target: human mitochondrial lysyl-tRNA synthetase with a C-terminal HA-tag (human) (UniProt Q15046); experiment: AlphaScreen or HTRF; HTRF; 1.5 nM mLysRS-HA or mLysRS∆C-HA (dimer) with rising His-tagged Pol (0.02 to 10 nM dimer), IN (0.5 to 125 nM dimer) or TF (1 to 1000 nM monomer); 10 mM Tris-HCl pH 7.5, 50 mM NaCl, 10 mM 2-mercaptoethanol, BSA 1 mg/ml, 1 h on ice; anti-H6-Eu3+ cryptate and anti-HA-XL665; apparent Kd; remark: listed apart in the source
p38 (Homo sapiens) = p38 (Homo sapiens) (UniProt Q13155); experiment: SPR; details: cited from earlier work
Chain of p38 (Homo sapiens) (Q13155 whole entry): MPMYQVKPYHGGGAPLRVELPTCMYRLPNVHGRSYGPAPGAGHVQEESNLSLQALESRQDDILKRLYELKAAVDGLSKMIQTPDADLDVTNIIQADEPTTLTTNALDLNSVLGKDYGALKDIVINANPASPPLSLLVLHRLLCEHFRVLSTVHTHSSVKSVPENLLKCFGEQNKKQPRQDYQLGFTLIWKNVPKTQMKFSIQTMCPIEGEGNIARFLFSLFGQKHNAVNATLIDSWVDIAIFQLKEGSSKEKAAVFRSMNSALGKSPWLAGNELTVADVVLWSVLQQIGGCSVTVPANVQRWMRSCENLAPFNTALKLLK

Substance | Kd [1] | Kd [2] | Kd [3] | Kd (p38 (Homo sapiens))
HIV-1 Pol polyprotein (Pol region of GagPol) with a C-terminal His6 tag (natural protein) | 1.3 nM | 0.71 nM | – | –
HIV-1 integrase with a C-terminal His6 tag (domain or fragment) | 11.8 nM | – | 12.9 nM | –
mLysRS (from UniProt Q15046) | – | – | – | 0.3 nM
